Laboratory results published in patent US20160130575.

Target: alpha-thrombin (Homo sapiens) (UniProt P00734+P00734)
Experiment: flow
Conditions: bead-based fluorescence; measured here; sequence not given

Row | Substance | Kd
1 | Tasset thrombin aptamer | 10.4 nM
2 | Bock thrombin aptamer | 2.1 nM
